Where no end group is shown, it is not given here.
Molecular target: EG(2)-HepN
Assay: competitive ELISA with EG(2)-HepN; competitor N-terminally biotinylated hepcidin-(28-47)

detection limit of the ELISA: 0.1 ng/well
Binder: PQQTGQLAELQPQDRAGARA (not fully specified (C-terminus)) [hepcidin-(28-47)]

Reference: patent publication US20070224186A1
